# Test results from patent US20120252718.
# Molecular target: cytochrome c (UniProt P62894)
# Details: Cy3 fluorescence quenching, hyperbolic fit; cytochrome c source for this assay not stated
# Sequence of cytochrome c (P62894 2-105): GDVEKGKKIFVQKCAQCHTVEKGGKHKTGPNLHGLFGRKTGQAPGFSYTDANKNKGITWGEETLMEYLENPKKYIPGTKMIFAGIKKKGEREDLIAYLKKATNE
substance,measurement,value
tRNACys 5'-Cy3,Kd,3.5 µM
